Measured values reported in US20190083491, “SMALL MOLECULES INHIBITORS OF RAD51” (The University of Chicago, published 2019).

Target: RAD51 (Homo sapiens, UniProt Q06609 Q06609:2-339)
Assay: FP; 0.2 uM RAD51, 2.22 nM ssDNA, 2 mM ATP, 10 mM MgCl2, 30 mM NaCl, pH 7.5, 37 C; binding used to measure compound effects, no Kd given
Conditions: tags: human RAD51, purified as previously described (source inferred); label: 5'-Alexa488
Description: In each well, RAD51 protein was combined with reaction buffer and varying concentrations of compound in DMSO in an initial volume of 40 μl and incubated at 37° C. for 40 minutes. […] The final reaction contained 4% DMSO, 0.2 μM RAD51, 30 mM NaCl, 2% glycerol, and 2.22 nM ssDNA substrate.

Chain of RAD51 (Q06609 2-339, one chain of several): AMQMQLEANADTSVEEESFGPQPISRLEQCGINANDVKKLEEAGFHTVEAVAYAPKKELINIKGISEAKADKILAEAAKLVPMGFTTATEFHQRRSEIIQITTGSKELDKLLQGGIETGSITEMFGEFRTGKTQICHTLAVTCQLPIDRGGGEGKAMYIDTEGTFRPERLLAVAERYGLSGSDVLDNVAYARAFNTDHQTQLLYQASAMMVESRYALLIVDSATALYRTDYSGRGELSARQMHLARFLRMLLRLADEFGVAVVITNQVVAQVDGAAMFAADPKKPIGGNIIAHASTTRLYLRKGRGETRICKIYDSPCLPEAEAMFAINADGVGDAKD

TTTTTTTTTTTTTTTTTTTTTTTTTTTTTTTTTTTTTTTTTTTTT (ssDNA) [Alexa488-oligo-dT45]: binds.
